Experimental data: US20150064751

Target: cleavage control protein containing an enterokinase cleavage site (Asp-Asp-Asp-Asp-Lys)

| Protein | cleavage of the 48 kDa control protein into 32 and 16 kDa fragments (SDS-PAGE, Coomassie; periplasmic fraction, 30 C, 24 h) |
| --- | --- |
| periplasmically-targeted bovine enterokinase expressed with the DsbA periplasmic signal sequence (protein) IVGGSDSREGAWPWVVALYFDDQQVCGASLVSRDWLVSAAHCVYGRNMEPSKWKAVLGLHMASNLTSPQIETRLIDQIVINPHYNKRRKNNDIAMMHLEMKVNYTDYIQPICLPEENQVFPPGRICSIAGWGALIYQGSTADVLQEADVPLLSNEKCQQQMPEYNITENMVCAGYEAGGVDSCQGDSGGPLMCQENNRWLLAGVTSFGYQCALPNRPGVYARVPRFTEWIQSFLH | the periplasmically localized enterokinase is active in cleaving the target protein |
| periplasmically-targeted bovine enterokinase expressed with the MalE periplasmic signal sequence (protein) IVGGSDSREGAWPWVVALYFDDQQVCGASLVSRDWLVSAAHCVYGRNMEPSKWKAVLGLHMASNLTSPQIETRLIDQIVINPHYNKRRKNNDIAMMHLEMKVNYTDYIQPICLPEENQVFPPGRICSIAGWGALIYQGSTADVLQEADVPLLSNEKCQQQMPEYNITENMVCAGYEAGGVDSCQGDSGGPLMCQENNRWLLAGVTSFGYQCALPNRPGVYARVPRFTEWIQSFLH | the periplasmically localized enterokinase is active in cleaving the target protein |
| periplasmically-targeted bovine enterokinase expressed with the OmpA periplasmic signal sequence (protein) IVGGSDSREGAWPWVVALYFDDQQVCGASLVSRDWLVSAAHCVYGRNMEPSKWKAVLGLHMASNLTSPQIETRLIDQIVINPHYNKRRKNNDIAMMHLEMKVNYTDYIQPICLPEENQVFPPGRICSIAGWGALIYQGSTADVLQEADVPLLSNEKCQQQMPEYNITENMVCAGYEAGGVDSCQGDSGGPLMCQENNRWLLAGVTSFGYQCALPNRPGVYARVPRFTEWIQSFLH | the periplasmically localized enterokinase is active in cleaving the target protein |
